Assay results: publication PMC8024975

Biological target: P. aeruginosa ClpGGI WT (P. aeruginosa)

B1: peptide 134 (peptide)
peptide: FLRYLKASKVPLN
ATPase activity of 1 μM ClpGGI with increasing Pep134 concentrations (saturation of the stimulation at 25 μM peptide) (ATP min^−1 monomer^−1): 108
